Measured values reported in US20100081612A1 (GENERAL HOSPITAL, published 2010).
Where no end group is shown, it is not given here. [ ]: non-standard residue; d: D form. Cha = N[C@@H](CC1CCCCC1)C(=O)O

B1: [Ala^1,Arg^19]hPTH(1-31)NH2 Leu^28→Cha (peptide)
peptide: AVSEIQLMHNLGKHLNSMRRVEWLRKK[Cha]QDV-NH2
modifications: N-terminus assumed
SMILES: CC[C@H](C)[C@H](NC(=O)[C@H](CCC(=O)O)NC(=O)[C@H](CO)NC(=O)[C@@H](NC(=O)[C@H](C)N)C(C)C)C(=O)N[C@@H](CCC(N)=O)C(=O)N[C@@H](CC(C)C)C(=O)N[C@@H](CCSC)C(=O)N[C@@H](Cc1c[nH]cn1)C(=O)N[C@@H](CC(N)=O)C(=O)N[C@@H](CC(C)C)C(=O)NCC(=O)N[C@@H](CCCCN)C(=O)N[C@@H](Cc1c[nH]cn1)C(=O)N[C@@H](CC(C)C)C(=O)N[C@@H](CC(N)=O)C(=O)N[C@@H](CO)C(=O)N[C@@H](CCSC)C(=O)N[C@@H](CCCNC(=N)N)C(=O)N[C@@H](CCCNC(=N)N)C(=O)N[C@H](C(=O)N[C@@H](CCC(=O)O)C(=O)N[C@@H](Cc1c[nH]c2ccccc12)C(=O)N[C@@H](CC(C)C)C(=O)N[C@@H](CCCNC(=N)N)C(=O)N[C@@H](CCCCN)C(=O)N[C@@H](CCCCN)C(=O)N[C@@H](CC1CCCCC1)C(=O)N[C@@H](CCC(N)=O)C(=O)N[C@@H](CC(=O)O)C(=O)N[C@H](C(N)=O)C(C)C)C(C)C
B2: [Ala^1,Arg^19]hPTH(1-31)NH2 Gln^29→Cha (peptide)
peptide: AVSEIQLMHNLGKHLNSMRRVEWLRKKL[Cha]DV-NH2
modifications: N-terminus assumed
SMILES: CC[C@H](C)[C@H](NC(=O)[C@H](CCC(=O)O)NC(=O)[C@H](CO)NC(=O)[C@@H](NC(=O)[C@H](C)N)C(C)C)C(=O)N[C@@H](CCC(N)=O)C(=O)N[C@@H](CC(C)C)C(=O)N[C@@H](CCSC)C(=O)N[C@@H](Cc1c[nH]cn1)C(=O)N[C@@H](CC(N)=O)C(=O)N[C@@H](CC(C)C)C(=O)NCC(=O)N[C@@H](CCCCN)C(=O)N[C@@H](Cc1c[nH]cn1)C(=O)N[C@@H](CC(C)C)C(=O)N[C@@H](CC(N)=O)C(=O)N[C@@H](CO)C(=O)N[C@@H](CCSC)C(=O)N[C@@H](CCCNC(=N)N)C(=O)N[C@@H](CCCNC(=N)N)C(=O)N[C@H](C(=O)N[C@@H](CCC(=O)O)C(=O)N[C@@H](Cc1c[nH]c2ccccc12)C(=O)N[C@@H](CC(C)C)C(=O)N[C@@H](CCCNC(=N)N)C(=O)N[C@@H](CCCCN)C(=O)N[C@@H](CCCCN)C(=O)N[C@@H](CC(C)C)C(=O)N[C@@H](CC1CCCCC1)C(=O)N[C@@H](CC(=O)O)C(=O)N[C@H](C(N)=O)C(C)C)C(C)C
B3: [Ala^1,Arg^19]hPTH(1-31)NH2 Asp^30→Cha (peptide)
peptide: AVSEIQLMHNLGKHLNSMRRVEWLRKKLQ[Cha]V-NH2
modifications: N-terminus assumed
SMILES: CC[C@H](C)[C@H](NC(=O)[C@H](CCC(=O)O)NC(=O)[C@H](CO)NC(=O)[C@@H](NC(=O)[C@H](C)N)C(C)C)C(=O)N[C@@H](CCC(N)=O)C(=O)N[C@@H](CC(C)C)C(=O)N[C@@H](CCSC)C(=O)N[C@@H](Cc1c[nH]cn1)C(=O)N[C@@H](CC(N)=O)C(=O)N[C@@H](CC(C)C)C(=O)NCC(=O)N[C@@H](CCCCN)C(=O)N[C@@H](Cc1c[nH]cn1)C(=O)N[C@@H](CC(C)C)C(=O)N[C@@H](CC(N)=O)C(=O)N[C@@H](CO)C(=O)N[C@@H](CCSC)C(=O)N[C@@H](CCCNC(=N)N)C(=O)N[C@@H](CCCNC(=N)N)C(=O)N[C@H](C(=O)N[C@@H](CCC(=O)O)C(=O)N[C@@H](Cc1c[nH]c2ccccc12)C(=O)N[C@@H](CC(C)C)C(=O)N[C@@H](CCCNC(=N)N)C(=O)N[C@@H](CCCCN)C(=O)N[C@@H](CCCCN)C(=O)N[C@@H](CC(C)C)C(=O)N[C@@H](CCC(N)=O)C(=O)N[C@@H](CC1CCCCC1)C(=O)N[C@H](C(N)=O)C(C)C)C(C)C
B4: [Ala^1,Arg^19]hPTH(1-31)NH2 Lys^26→Cha (peptide)
peptide: AVSEIQLMHNLGKHLNSMRRVEWLR[Cha]KLQDV-NH2
modifications: N-terminus assumed
SMILES: CC[C@H](C)[C@H](NC(=O)[C@H](CCC(=O)O)NC(=O)[C@H](CO)NC(=O)[C@@H](NC(=O)[C@H](C)N)C(C)C)C(=O)N[C@@H](CCC(N)=O)C(=O)N[C@@H](CC(C)C)C(=O)N[C@@H](CCSC)C(=O)N[C@@H](Cc1c[nH]cn1)C(=O)N[C@@H](CC(N)=O)C(=O)N[C@@H](CC(C)C)C(=O)NCC(=O)N[C@@H](CCCCN)C(=O)N[C@@H](Cc1c[nH]cn1)C(=O)N[C@@H](CC(C)C)C(=O)N[C@@H](CC(N)=O)C(=O)N[C@@H](CO)C(=O)N[C@@H](CCSC)C(=O)N[C@@H](CCCNC(=N)N)C(=O)N[C@@H](CCCNC(=N)N)C(=O)N[C@H](C(=O)N[C@@H](CCC(=O)O)C(=O)N[C@@H](Cc1c[nH]c2ccccc12)C(=O)N[C@@H](CC(C)C)C(=O)N[C@@H](CCCNC(=N)N)C(=O)N[C@@H](CC1CCCCC1)C(=O)N[C@@H](CCCCN)C(=O)N[C@@H](CC(C)C)C(=O)N[C@@H](CCC(N)=O)C(=O)N[C@@H](CC(=O)O)C(=O)N[C@H](C(N)=O)C(C)C)C(C)C
B5: human PTH(1-31)NH2 (peptide)
peptide: SVSEIQLMHNLGKHLNSMERVEWLRKKLQDV-NH2
notes: also called hPTH(1-31)NH2; parental PTH(1-31)NH2 peptide
B6: [Ala^1,Arg^19]hPTH(1-31)NH2 Val^31→Cha (peptide)
peptide: AVSEIQLMHNLGKHLNSMRRVEWLRKKLQD[Cha]-NH2
modifications: N-terminus assumed
SMILES: CC[C@H](C)[C@H](NC(=O)[C@H](CCC(=O)O)NC(=O)[C@H](CO)NC(=O)[C@@H](NC(=O)[C@H](C)N)C(C)C)C(=O)N[C@@H](CCC(N)=O)C(=O)N[C@@H](CC(C)C)C(=O)N[C@@H](CCSC)C(=O)N[C@@H](Cc1c[nH]cn1)C(=O)N[C@@H](CC(N)=O)C(=O)N[C@@H](CC(C)C)C(=O)NCC(=O)N[C@@H](CCCCN)C(=O)N[C@@H](Cc1c[nH]cn1)C(=O)N[C@@H](CC(C)C)C(=O)N[C@@H](CC(N)=O)C(=O)N[C@@H](CO)C(=O)N[C@@H](CCSC)C(=O)N[C@@H](CCCNC(=N)N)C(=O)N[C@@H](CCCNC(=N)N)C(=O)N[C@H](C(=O)N[C@@H](CCC(=O)O)C(=O)N[C@@H](Cc1c[nH]c2ccccc12)C(=O)N[C@@H](CC(C)C)C(=O)N[C@@H](CCCNC(=N)N)C(=O)N[C@@H](CCCCN)C(=O)N[C@@H](CCCCN)C(=O)N[C@@H](CC(C)C)C(=O)N[C@@H](CCC(N)=O)C(=O)N[C@@H](CC(=O)O)C(=O)N[C@@H](CC1CCCCC1)C(N)=O)C(C)C

What follows are binders tested against PTHR-delNt (human) (UniProt Q03431) (assay: competition binding, COS-7 membranes, 125I-[Aib1,3,M]PTH(1-15) tracer).

Binder | IC50 | fold change in binding affinity vs [Ala^1,Arg^19]PTH(1-31)NH2
B1 | 226 nM | < 3 fold
AVSEIQLMHNLGKHLNSMRRVEWL[Cha]KKLQDV-NH2 [[Ala^1,Arg^19]hPTH(1-31)NH2 Arg^25→Cha] | 2710 nM | 
B2 | 319 nM | < 3 fold
B3 | 305 nM | < 3 fold
B4 | 1870 nM | 
B5 | 3670 nM | 
B6 | 466 nM | < 3 fold

Each binder was assayed against T1, wild-type human PTHR (human, UniProt Q03431 27-593) (assay: competition binding, HKRK-B7 cells, 125I-PTH(1-34) tracer).
T1 construct: whole, on cells; also called PTHR-WT; intact PTHR
T1 sequence (looked up): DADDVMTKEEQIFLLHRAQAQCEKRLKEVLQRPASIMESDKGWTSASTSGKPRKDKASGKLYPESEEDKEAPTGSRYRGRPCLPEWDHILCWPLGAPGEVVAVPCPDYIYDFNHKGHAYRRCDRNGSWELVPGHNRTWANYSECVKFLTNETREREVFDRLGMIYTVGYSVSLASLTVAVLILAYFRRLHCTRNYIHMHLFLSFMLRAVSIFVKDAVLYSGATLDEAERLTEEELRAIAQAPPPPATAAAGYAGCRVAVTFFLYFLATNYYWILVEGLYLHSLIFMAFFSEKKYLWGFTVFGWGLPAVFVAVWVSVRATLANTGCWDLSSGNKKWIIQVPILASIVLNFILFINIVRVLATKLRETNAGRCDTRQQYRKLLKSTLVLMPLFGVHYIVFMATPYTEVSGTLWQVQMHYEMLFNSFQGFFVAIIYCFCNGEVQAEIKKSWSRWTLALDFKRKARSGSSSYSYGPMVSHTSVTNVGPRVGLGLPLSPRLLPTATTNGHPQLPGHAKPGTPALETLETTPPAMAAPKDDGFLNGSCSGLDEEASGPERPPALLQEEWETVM
Experimental: (§1) Receptor binding—Binding to the wild-type human PTHR in intact HKRK-B7 cells and ROS 17/2.8 cells was assessed using ¹²⁵I-PTH(1-34) as a tracer radioligand, as described (Shimizu, M., (2001) Endocrinology 142:3068-3074). In brief, the cells in 24-well plates (about 500,000 cells per well) were incubated in binding buffer containing radioligand (about 100,000 cpm per well) with or without unlabeled peptide ligand (3×10⁻⁹ to 1×10⁻⁵ M) for four hours at 15° C. The binding mixture was then removed by aspiration, the cells were rinsed three times with binding buffer, lysed in 1 M NaOH, and the entire lysate was counted for gamma-irradiation in a gamma counter. Binding to PTHR-delNt in COS-7 cell membranes was assessed in 96-well, vacuum filtration plates (Multiscreen-Durapore HV, […], Millipore Corp., Millford, Mass.) using ¹²⁵I-[Aib^{1,3},M]PTH(1-15)NH₂ as a tracer radioligand, as described (Dean, T., (2006) Mol Endocrinol 20:931-942). In brief, cell membranes (20 μg/well) were incubated in membrane binding buffer containing radioligand (30,000 cpm/well) with or without unlabeled peptide ligand (3×10⁻⁹ to 1×10⁻⁵ M) for 90 minutes at 21° C. The plates were then subject to rapid vacuum filtration, the filters were washed once with buffer, detached from the plate and counted for gamma-irradiation in a gamma counter. Non-specific binding was defined as the binding observed in the presence of 1×10⁻⁶ M PTH(1-31)NH₂ for HKRK-B7 and ROS 17/2.8 cells, and 1×10⁻⁶ M [Aib^{1,3},M]PTH(1-15)NH₂ for PTHR-delNt. Specifically bound radioactivity was calculated as a percentage of the radioactivity specifically bound in the absence of competing ligand.
Alanine-Scan of the PTH(17-31) domain—Each residue in the (17-31) region of PTH(1-31)NH₂ was individually replaced with alanine and the effects of the substitutions on binding to the intact human PTHR stably expressed in HKRK-B7 cells was assessed. Competition binding studies were performed using whole cells and ¹²⁵I-PTH(1-34) (¹²⁵I-[Nle^{8,21},Tyr³⁴]ratPTH(1-34)NH₂) as a tracer radioligand.

Binder | IC50
B5 | 68 nM

Each binder was assayed against T1, wild-type human PTHR (assay: cell-based or functional assay).

Binder | inositol phosphate (IP) production, peptide at 1×10^-6 M
B5 | 4 fold

Target: T1, wild-type human PTHR
Assay: competition binding, HKRK-B7 cells, 125I-PTH(1-34) tracer
Remark: another data set of the same source

Binder | fold change in binding affinity vs [Ala^1,Arg^19]PTH(1-31)NH2
B1 | ≤ 6 fold
AVSEIQLMHNLGKHLNSMRRVEWL[Cha]KKLQDV-NH2 [[Ala^1,Arg^19]hPTH(1-31)NH2 Arg^25→Cha] | ≤ 6 fold
B2 | ≤ 6 fold
B3 | ≤ 6 fold
B4 | ≤ 6 fold
B6 | ≤ 6 fold

Target: T1, wild-type human PTHR
Assay: as above
Remark: another data set of the same source
Experimental: as §1
Cyclohexylalanine and glutamate substitutions were introduced into [Ala¹,Arg¹⁹]hPTH(1-31)NH₂. The helical residue values were calculated from [θ]₂₂₂, the mean-residue elipticities observed in the CD spectra at 222 nm. Competition binding studies were performed in intact HKRK-B7 cells stably transfected with the hPTHR using ¹²⁵I-[Nle^{8,21},Tyr³⁴]rPTH(1-34)NH ₂ tracer radioligand, and in membranes prepared from COS-7 cells transiently transfected with hPTHR-delNt and a negative-dominant Gαs using ¹²⁵I-[Aib^{1,3},Nle⁸,Gln¹⁰,Har¹¹,Ala¹²,Trp¹⁴,Tyr¹⁵]rPTH(1-15)NH₂ tracer radioligand. Binding values (nM) are means (+/−s.e.m.) of data from the number of experiments indicated (n).

Binder | IC50
B1 | 65 nM
AVSEIQLMHNLGKHLNSMRRVEWL[Cha]KKLQDV-NH2 [[Ala^1,Arg^19]hPTH(1-31)NH2 Arg^25→Cha] | 103 nM
B2 | 61 nM
B3 | 54 nM
B4 | 172 nM
B6 | 66 nM
